This test concerns the target T1, human CD25 (Interleukin-2 receptor alpha chain) (human, UniProt P01589 22-272).
T1 sequence (looked up): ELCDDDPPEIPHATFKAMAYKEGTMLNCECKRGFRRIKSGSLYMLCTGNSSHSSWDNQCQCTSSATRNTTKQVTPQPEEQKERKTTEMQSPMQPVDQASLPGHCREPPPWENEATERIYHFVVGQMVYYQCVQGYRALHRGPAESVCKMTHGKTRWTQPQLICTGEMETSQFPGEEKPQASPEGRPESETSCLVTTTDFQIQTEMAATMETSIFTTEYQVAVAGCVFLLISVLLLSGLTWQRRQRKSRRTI
Nature of the test: cell-based or functional assay.

B1: ALD25H2 anti-CD25 antibody (antibody, V domains shown)
VH: EVQLVESGGGLVQPGRSMKLSCAASGFTFSNHAMAWVRQAPKKGLEWVAYISYDGDNTYYRDSVKGRFTISRDNAKSTLYLQIDSLRSEDTATYYCTTGGNSGYDWGQGVMVTVSS
VL: DIQMTQSPSFLSASVGDRVTINCKASQNVNKFVNWYQQKLGEAPRRLIYGTNSLQTGIPSRFSGSGSGTDYTLTISSLQPEDVATYFCQQYSSWPWTFGGGTKLELK
On to B1, for which the “IL-2 induced T-cell proliferation, Mean (control = 100)” value (“IL-2 induced T-cell proliferation” below) was determined as 81.7.

B2: ALD25H1 anti-CD25 antibody (antibody, V domains shown)
VH: EVQLVESGGGLVQPGRSMKLSCAASGFPFSDHAMAWVRQAPKKGLQWVAYISYDGDNTYYRDSVKGRFTISRDNARSTLFLQMDSLRSEDTATYYCTTGGNSGYDWGQGVMVTVSS
VL: DIQMTQSPSFLSASVGDRVTINCKASQNVNKFLNWYQQKLGEAPRRLIYGTNSLQTGIPSRFSGSGSGTDYTLTISSLQPEDVATYFCQQYSSWPWTFGGGTKLELK
Take B2: the “IL-2 induced T-cell proliferation” value came to 78.1.

B3: ALD25H4 anti-CD25 antibody (antibody, V domains shown)
VH: EVQLVESGGGLVQPGRSMKLSCAVSGFTFSNHAMAWVRQAPKKGLEWVAYISYDGDNTYYRDSVKGRFTISRDNAQSTLYLQMDSLRSEDTATYYCTTGGNSGYDWGQGVMVTVSS
VL: DIQMTQSPSFLSASVGDRVTINCKGSQNVNKFLNWYQQKLGEAPRRLIYGTNSLQTGIPSRFSGSGSGTDYTLTISSLQPEDVATYFCQQYTSWPWTFGGGTKLELK
As for B3, the “IL-2 induced T-cell proliferation” value was 73.

B4: 7G7B6 monoclonal antibody (IL-2 non-competitive anti-CD25 antibody) (antibody, V domains shown)
VH: EVQLVESGGDLVQPRGSLKLSCAASGFTFSSYGMSWVRQTPDKRLELVATINGYGDTTYYPDSVKGRFTISRDNAKNTLYLQMSSLKSEDTAMYFCARDRDYGNSYYYALDYWGQGTSVTVSS
VL: QIVLSQSPAILSASPGERVTMTCRASSSVSFMHWLQQKPGSSPKPWIYATSNLASGVSARFSGSGSGTSYSLTITRVEAEDAATYYCQQWSSNPPAFGGGTKLEIK
For the molecule B4, the “IL-2 induced T-cell proliferation” value stood at 55.
